Results published in patent US20070059799A1.
Where two headings read alike, the source gives them in different places.

Columns and labels:
HLA-A*0301 (human) [1] = assay: competition with 125I-labelled standard peptide on purified HLA, gel filtration
HLA-A*1101 (human) [2] = assay: as above
HLA-A*3101 (human) [3] = assay: as above
HLA-A*3301 (human) [4] = assay: as above
HLA-A*6801 (human) = assay: as above; details: remark: other sources report otherwise
HLA-A*0301 (human) [5] = assay: competition with 125I-labelled probe peptide for purified HLA, gel filtration
HLA-A*1101 (human) [6] = assay: inhibition of 125I-labelled standard peptide binding to purified HLA
HLA-A*3101 (human) [7] = assay: as above
HLA-B*5301 (human) = assay: competition with 125I-labelled standard peptide for purified HLA, gel filtration
HLA-A*0301 (human) [8] = molecular target: HLA-A*0301 (human)
HLA-A*3301 (human) [9] = assay: inhibition of 125I-labelled standard peptide binding to purified HLA
HLA-B*0702 (human) [10] = assay: competition with 125I-labelled standard peptide for purified HLA, gel filtration
HLA-A*0301 (human) [11] = molecular target: HLA-A*0301 (human); remark: listed apart in the source
HLA-B*0702 (human) [12] = molecular target: HLA-B*0702 (human)
HLA-A*0201 (Human) = assay: competition with 125I-labelled standard peptide for purified HLA, gel filtration
HLA-A*03 (human) = assay: competition with 125I-labelled probe peptide for purified HLA, gel filtration; details: remark: other sources report otherwise
HLA-A*3101 (human) [13] = assay: as above; details: remark: other sources report otherwise
[14] = remark: other sources report otherwise

TAELLAACFAR (modifications not checked) [HBV POL 716 11-mer peptide … (SEQ ID NO: 661)]
binding affinity ratio (IC50 of standard peptide / IC50 of test peptide) (HLA-A*0301 (human) [1]; [14]): 0.0006 | binding affinity ratio (IC50 of standard peptide / IC50 of test peptide) (HLA-A*1101 (human) [2]; [14]): 0.0023 | binding affinity ratio (IC50 of standard peptide / IC50 of test peptide) (HLA-A*3101 (human) [3]; [14]): 0.0066 | binding affinity ratio (IC50 of standard peptide / IC50 of test peptide) (HLA-A*3301 (human) [4]; [14]): 0.16 | binding affinity ratio (IC50 of standard peptide / IC50 of test peptide) (HLA-A*6801 (human)): 0.059

HLNPNKTKR (modifications not checked) [HBV POL 569 peptide …]
binding affinity ratio (IC50 of standard peptide / IC50 of test peptide) (HLA-A*0301 (human) [5]): 0.0025

PLSYQHFRK (modifications not checked) [HBV POL 2 peptide …]
binding affinity ratio (IC50 of standard peptide / IC50 of test peptide) (HLA-A*1101 (human) [6]): 0.0031 | binding affinity ratio (IC50 of standard peptide / IC50 of test peptide) (HLA-A*3101 (human) [7]): 0.0006

RTPSPRRR (modifications not checked) [HBV NUC 188 8-mer peptide ATPSPRRR (SEQ ID NO: 648)]
binding affinity ratio (IC50 of standard peptide / IC50 of test peptide) (HLA-A*0301 (human) [1]): -0.0002 | binding affinity ratio (IC50 of standard peptide / IC50 of test peptide) (HLA-A*1101 (human) [2]): -0.0002 | binding affinity ratio (IC50 of standard peptide / IC50 of test peptide) (HLA-A*3101 (human) [3]): 0.0033 | binding affinity ratio (IC50 of standard peptide / IC50 of test peptide) (HLA-A*3301 (human) [4]): 0.0014

PPAYRPPNAPI (modifications not checked) [HBV NUC 129 peptide …]
binding affinity ratio (IC50 of standard peptide / IC50 of test peptide) (HLA-B*5301 (human)): -0.0003

TSAICSVVR (modifications not checked) [HBV POL 519 …]
binding affinity ratio (IC50 of standard peptide / IC50 of test peptide) (HLA-A*0301 (human) [8]; [14]): 0.0005

PLSYQHFR (modifications not checked) [HBV POL 2 peptide PLSYQHFR]
binding affinity ratio (IC50 of standard peptide / IC50 of test peptide) (HLA-A*3101 (human) [7]): -0.0009 | binding affinity ratio (IC50 of standard peptide / IC50 of test peptide) (HLA-A*3301 (human) [9]): -0.0009

PLEEELPR (modifications not checked) [HBV POL 20 peptide PLEEELPR]
binding affinity ratio (IC50 of standard peptide / IC50 of test peptide) (HLA-A*1101 (human) [6]): -0.0002 | binding affinity ratio (IC50 of standard peptide / IC50 of test peptide) (HLA-A*3101 (human) [7]): -0.0009 | binding affinity ratio (IC50 of standard peptide / IC50 of test peptide) (HLA-A*3301 (human) [9]): -0.0009

TSAICSVVR (modifications not checked) [HBV POL 519 9-mer peptide … (SEQ ID NO: 667)]
binding affinity ratio (IC50 of standard peptide / IC50 of test peptide) (HLA-A*0301 (human) [1]; [14]): 0.0005 | binding affinity ratio (IC50 of standard peptide / IC50 of test peptide) (HLA-A*3101 (human) [3]; [14]): 0.06 | binding affinity ratio (IC50 of standard peptide / IC50 of test peptide) (HLA-A*3301 (human) [4]; [14]): 0.02 | binding affinity ratio (IC50 of standard peptide / IC50 of test peptide) (HLA-A*6801 (human)): 0.082

TLWKAGILYKR (modifications not checked) [HBV POL 150 …]
binding affinity ratio (IC50 of standard peptide / IC50 of test peptide) (HLA-A*0301 (human) [8]; [14]): 0.0082

TDNSVVLSRK (modifications not checked) [HBV POL 736 …]
binding affinity ratio (IC50 of standard peptide / IC50 of test peptide) (HLA-A*0301 (human) [8]): 0.0006

VPNLQSLTNL (modifications not checked) [HBV POL 398 peptide …]
binding affinity ratio (IC50 of standard peptide / IC50 of test peptide) (HLA-B*0702 (human) [10]): 0.0008

PVGAESRGR (modifications not checked) [HBV X 20 peptide …]
binding affinity ratio (IC50 of standard peptide / IC50 of test peptide) (HLA-A*1101 (human) [6]): 0.0005 | binding affinity ratio (IC50 of standard peptide / IC50 of test peptide) (HLA-A*3301 (human) [9]): 0.0043

WLWGMDIDPYK (modifications not checked) [… (HBV NUC 26)]
binding affinity ratio (IC50 of standard peptide / IC50 of test peptide) (HLA-A*0301 (human) [11]; [14]): 0.003

PLTVNEKRR (modifications not checked) [HBV POL 98 peptide …]
binding affinity ratio (IC50 of standard peptide / IC50 of test peptide) (HLA-A*1101 (human) [6]): 0.0005 | binding affinity ratio (IC50 of standard peptide / IC50 of test peptide) (HLA-A*3301 (human) [9]): 0.0027

IPWTHKVGNF (modifications not checked) [HBV POL 50 peptide …]
binding affinity ratio (ratio to standard peptide) (HLA-B*0702 (human) [12]): 0.0013

TLWKAGILYKR (modifications not checked) [HBV POL 150 11-mer peptide … (SEQ ID NO: 666)]
binding affinity ratio (IC50 of standard peptide / IC50 of test peptide) (HLA-A*0301 (human) [1]; [14]): 0.0082 | binding affinity ratio (IC50 of standard peptide / IC50 of test peptide) (HLA-A*1101 (human) [2]; [14]): 0.0095 | binding affinity ratio (IC50 of standard peptide / IC50 of test peptide) (HLA-A*3101 (human) [3]; [14]): 0.1 | binding affinity ratio (IC50 of standard peptide / IC50 of test peptide) (HLA-A*3301 (human) [4]; [14]): 0.11 | binding affinity ratio (IC50 of standard peptide / IC50 of test peptide) (HLA-A*6801 (human)): 0.064

GVWIRTPPA (modifications not checked) [HBV NUC 123 peptide …]
binding affinity ratio (IC50 of standard peptide / IC50 of test peptide) (HLA-A*0201 (Human)): 0.003

AFTFSPTYK (modifications not checked) [peptide 20.0130 (HBV pol 655, …)]
IC50 (HLA-A*03 (human)): 42 nM | IC50 (HLA-A*3101 (human) [13]): 3.1 µM

GLSPTVWLSVI (modifications not checked) [HBV ENV 348 peptide …]
binding affinity ratio (IC50 of standard peptide / IC50 of test peptide) (HLA-A*0201 (Human)): 0.0036

YLVSFGVWIR (modifications not checked) [… (HBV NUC 118)]
binding affinity ratio (IC50 of standard peptide / IC50 of test peptide) (HLA-A*0301 (human) [11]): 0.0005
